The values below come from the supplement of paper PMC7125110.

B1: glmS ribozyme (parent)
chain: AUAAAAGCGCCAGAACUACAGAAAUGUAGUUGACGAGGAGGAGGUUUAUCGAAUUUUCGGCGGAUGCCUCCAAA

± gives the standard error. This sample holds only a part of the variants without activity.

In the first data set the parent is B1. Briefly: self-cleavage kobs at 2500 uM GlcN6P; higher = faster cleavage; RNA array. As to conditions: with glucosamine-6-phosphate. In outline: (§1)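 The measurements used barcoded ribozyme variants on sequenced MiSeq chips, transcribed in situ by E. coli RNA polymerase and tracked at 37 °C with a hybridised Cy3 probe. Glucosamine-6-phosphate, 40 μM to 10 mM in HEPES/KCl/Mg(OAc)2 buffer, was flowed in while tiles were imaged over ~14 h. Baseline-normalised signals, also normalised to non-cleaving reference variants, gave per-tile medians that were fit to one- or two-exponential decays for kobs. kcat and KM resulted from weighted Michaelis–Menten fits across concentrations.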
With G32C G44A U45C, the “self-cleavage kobs at 2500 uM GlcN6P” value is less than 1e-05 s⁻¹.

As to G32U A42G U55C U56C C58G, the “self-cleavage kobs at 2500 uM GlcN6P” value is 5.49e-05 ± 1.3e-05 s⁻¹.

With G13U G51C U57A C71A, the “self-cleavage kobs at 2500 uM GlcN6P” value is less than 1e-05 s⁻¹.

Consider G38A C50G G59U C61A C67G, for which the “self-cleavage kobs at 2500 uM GlcN6P” value came to 8.22e-05 ± 2.2e-05 s⁻¹.

For the variant A14U U30G G38A U69G, the “self-cleavage kobs at 2500 uM GlcN6P” value is 0.00012 ± 5.3e-05 s⁻¹.

For G40U U54G C68U, the “self-cleavage kobs at 2500 uM GlcN6P” value was determined as 0.000121 ± 4.4e-05 s⁻¹.

On to G32C U54G A64U, for which the “self-cleavage kobs at 2500 uM GlcN6P” value is less than 1e-05 s⁻¹.

Take G7U A33U G35C G44C U45G G66U: the “self-cleavage kobs at 2500 uM GlcN6P” value is less than 1e-05 s⁻¹.

Regarding A14U A15U C16U, the “self-cleavage kobs at 2500 uM GlcN6P” value amounted to 5.74e-05 ± 2.3e-05 s⁻¹.

Take G7U A14C U56C: the “self-cleavage kobs at 2500 uM GlcN6P” value was less than 1e-05 s⁻¹.

Regarding G7C G29A A36U C71A, the “self-cleavage kobs at 2500 uM GlcN6P” value is less than 1e-05 s⁻¹.

On to U45G U57A, for which the “self-cleavage kobs at 2500 uM GlcN6P” value amounted to 5.34e-05 ± 1.2e-05 s⁻¹.

Turning to A53U C67A C70A, the “self-cleavage kobs at 2500 uM GlcN6P” value is 5.59e-05 ± 2.7e-05 s⁻¹.

Turning to G13U U55A C58A, the “self-cleavage kobs at 2500 uM GlcN6P” value was determined as 0.001 ± 0.00012 s⁻¹.

G13U G38C A53U: the “self-cleavage kobs at 2500 uM GlcN6P” value was less than 1e-05 s⁻¹.

For A12U A15G U45C C50G C61A, the “self-cleavage kobs at 2500 uM GlcN6P” value is less than 1e-05 s⁻¹.

In the case of C8U G43U G62C C68U, the “self-cleavage kobs at 2500 uM GlcN6P” value is less than 1e-05 s⁻¹.

Take A14U G32A G38U C50G C71G: the “self-cleavage kobs at 2500 uM GlcN6P” value came to 0.000179 ± 3.5e-05 s⁻¹.

In the case of G38C U45C C50A G51C C67U, the “self-cleavage kobs at 2500 uM GlcN6P” value is less than 1e-05 s⁻¹.

For the variant A12G G32A G60U, the “self-cleavage kobs at 2500 uM GlcN6P” value is less than 1e-05 s⁻¹.

Take A14U U55G C58G: the “self-cleavage kobs at 2500 uM GlcN6P” value was 5.25e-05 ± 1.2e-05 s⁻¹.

For U31C C58A C61U A64U, the “self-cleavage kobs at 2500 uM GlcN6P” value was less than 1e-05 s⁻¹.

With C10U G51C C58G, the “self-cleavage kobs at 2500 uM GlcN6P” value is less than 1e-05 s⁻¹.

In the case of U31A C34G A48G, the “self-cleavage kobs at 2500 uM GlcN6P” value was less than 1e-05 s⁻¹.

Consider U2C C61G, for which the “self-cleavage kobs at 2500 uM GlcN6P” value was less than 1e-05 s⁻¹.

With C11A G38C G40U G59A, the “self-cleavage kobs at 2500 uM GlcN6P” value was less than 1e-05 s⁻¹.

For the variant C16G G29U A39U G51U C71U, the “self-cleavage kobs at 2500 uM GlcN6P” value is less than 1e-05 s⁻¹.

In the case of A14C U45G C68U, the “self-cleavage kobs at 2500 uM GlcN6P” value was determined as 3.4e-05 ± 1.6e-05 s⁻¹.

On to G51U A53G U69G, for which the “self-cleavage kobs at 2500 uM GlcN6P” value is 4.29e-05 ± 2e-05 s⁻¹.

For C8A A14G A64U, the “self-cleavage kobs at 2500 uM GlcN6P” value was less than 1e-05 s⁻¹.

In the case of A6G U31C A36G A42U, the “self-cleavage kobs at 2500 uM GlcN6P” value is less than 1e-05 s⁻¹.

A36G G44U A48G C67U C71A: the “self-cleavage kobs at 2500 uM GlcN6P” value is less than 1e-05 s⁻¹.

For C58A G59C C71U, the “self-cleavage kobs at 2500 uM GlcN6P” value was less than 1e-05 s⁻¹.

Consider A15U A39G A52G, for which the “self-cleavage kobs at 2500 uM GlcN6P” value worked out at 0.000162 ± 6.5e-05 s⁻¹.

With G38C G59C C71G, the “self-cleavage kobs at 2500 uM GlcN6P” value is less than 1e-05 s⁻¹.

For the variant A14C U31G A64C, the “self-cleavage kobs at 2500 uM GlcN6P” value came out at 6.13e-05 ± 2.2e-05 s⁻¹.

As to G13A A64C C71U, the “self-cleavage kobs at 2500 uM GlcN6P” value was less than 1e-05 s⁻¹.

As to A6U C8A U56A, the “self-cleavage kobs at 2500 uM GlcN6P” value was less than 1e-05 s⁻¹.

G38A U55C U56C: the “self-cleavage kobs at 2500 uM GlcN6P” value was less than 1e-05 s⁻¹.

As to C16U G32U U46G, the “self-cleavage kobs at 2500 uM GlcN6P” value amounted to 6.51e-05 ± 2.5e-05 s⁻¹.

A39U A48G U57A G60U C70G: the “self-cleavage kobs at 2500 uM GlcN6P” value was less than 1e-05 s⁻¹.

G40A U46G C67U: the “self-cleavage kobs at 2500 uM GlcN6P” value turned out to be 0.000431 ± 0.0002 s⁻¹.

Consider A6G A14U U45C, for which the “self-cleavage kobs at 2500 uM GlcN6P” value was less than 1e-05 s⁻¹.

For the variant A36U U57G A64G C67U, the “self-cleavage kobs at 2500 uM GlcN6P” value is less than 1e-05 s⁻¹.

Regarding G7A C50G G63C, the “self-cleavage kobs at 2500 uM GlcN6P” value was 0.000242 ± 7.3e-05 s⁻¹.

Regarding G40A G59C G63A C68A, the “self-cleavage kobs at 2500 uM GlcN6P” value is less than 1e-05 s⁻¹.

For the variant U57A A64U C67U U69G, the “self-cleavage kobs at 2500 uM GlcN6P” value was 8.87e-05 ± 2.4e-05 s⁻¹.

On to G29U U54A C70A, for which the “self-cleavage kobs at 2500 uM GlcN6P” value stood at 6.05e-05 ± 3e-05 s⁻¹.

Consider A14G C67G C68A, for which the “self-cleavage kobs at 2500 uM GlcN6P” value came to 2.78e-05 ± 1.3e-05 s⁻¹.

For A6U G7C C8G, the “self-cleavage kobs at 2500 uM GlcN6P” value was less than 1e-05 s⁻¹.

Turning to G9U G35U G37C G51C, the “self-cleavage kobs at 2500 uM GlcN6P” value is less than 1e-05 s⁻¹.

In the case of A6U A39G C70U, the “self-cleavage kobs at 2500 uM GlcN6P” value is 8.18e-05 ± 3.2e-05 s⁻¹.

Turning to C8U A14G C50U C71G, the “self-cleavage kobs at 2500 uM GlcN6P” value is less than 1e-05 s⁻¹.

As to C34G A42C A48G, the “self-cleavage kobs at 2500 uM GlcN6P” value was less than 1e-05 s⁻¹.

Turning to C11U G40U A42U G44A, the “self-cleavage kobs at 2500 uM GlcN6P” value was less than 1e-05 s⁻¹.

As for G29A G63A, the “self-cleavage kobs at 2500 uM GlcN6P” value was less than 1e-05 s⁻¹.

For the variant C34A G38U G40A G44C U55C C70G, the “self-cleavage kobs at 2500 uM GlcN6P” value was less than 1e-05 s⁻¹.

As to A14G G44U U56A, the “self-cleavage kobs at 2500 uM GlcN6P” value stood at 0.000881 ± 0.00031 s⁻¹.

On to A15G G35C G37C U49C, for which the “self-cleavage kobs at 2500 uM GlcN6P” value is less than 1e-05 s⁻¹.

On to G7U G44U A53U, for which the “self-cleavage kobs at 2500 uM GlcN6P” value is less than 1e-05 s⁻¹.

G40U C50G G62A: the “self-cleavage kobs at 2500 uM GlcN6P” value was less than 1e-05 s⁻¹.

On to G32C G41A G63A C70U, for which the “self-cleavage kobs at 2500 uM GlcN6P” value is less than 1e-05 s⁻¹.

For the variant G9U A33G A53C, the “self-cleavage kobs at 2500 uM GlcN6P” value is less than 1e-05 s⁻¹.

As to A14U G29C G44U, the “self-cleavage kobs at 2500 uM GlcN6P” value was less than 1e-05 s⁻¹.

On to C50U G60U A64C C70A, for which the “self-cleavage kobs at 2500 uM GlcN6P” value is less than 1e-05 s⁻¹.

As for U31C G40U U46G, the “self-cleavage kobs at 2500 uM GlcN6P” value stood at 3.61e-05 ± 1.5e-05 s⁻¹.

As to A15C A42G C70G, the “self-cleavage kobs at 2500 uM GlcN6P” value is 7.41e-05 ± 1.9e-05 s⁻¹.

Regarding U46G G66A C70A, the “self-cleavage kobs at 2500 uM GlcN6P” value worked out at 0.00045 ± 0.00016 s⁻¹.

As for C16G G37U A42G, the “self-cleavage kobs at 2500 uM GlcN6P” value is less than 1e-05 s⁻¹.

For the variant G29C G41A, the “self-cleavage kobs at 2500 uM GlcN6P” value turned out to be 7.06e-05 ± 3.1e-05 s⁻¹.

As for C16G G40C U45G, the “self-cleavage kobs at 2500 uM GlcN6P” value stood at 6.01e-05 ± 2.1e-05 s⁻¹.

As for G9A G29C G37U A48G A52C C70G, the “self-cleavage kobs at 2500 uM GlcN6P” value was less than 1e-05 s⁻¹.

With G13U G35U U54A, the “self-cleavage kobs at 2500 uM GlcN6P” value was less than 1e-05 s⁻¹.

Consider A52G C58G C61A A64U C67U, for which the “self-cleavage kobs at 2500 uM GlcN6P” value stood at 9.05e-05 ± 3.3e-05 s⁻¹.

For A12G G29U C58A G59U C67A, the “self-cleavage kobs at 2500 uM GlcN6P” value is less than 1e-05 s⁻¹.

Regarding A14G U46C U54A C71A, the “self-cleavage kobs at 2500 uM GlcN6P” value is 0.000844 ± 0.00027 s⁻¹.

As for G32U A48C G51C, the “self-cleavage kobs at 2500 uM GlcN6P” value was less than 1e-05 s⁻¹.

As to C11A C34A A42C C70A, the “self-cleavage kobs at 2500 uM GlcN6P” value is less than 1e-05 s⁻¹.

U30A A39G C70U: the “self-cleavage kobs at 2500 uM GlcN6P” value came out at 0.00333 ± 0.00077 s⁻¹.

Take A12U A64G C67G: the “self-cleavage kobs at 2500 uM GlcN6P” value worked out at 7.12e-05 ± 2.2e-05 s⁻¹.

Regarding A4C, the “self-cleavage kobs at 2500 uM GlcN6P” value was 0.0314 ± 0.0074 s⁻¹.

Variants of B1 are the subject of the next data set. Briefly: self-cleavage kobs at 10000 uM GlcN6P; higher = faster cleavage; RNA array. Particulars: with glucosamine-6-phosphate. In outline: as §1
For U45G U57A, the “self-cleavage kobs at 10000 uM GlcN6P” value was 9.86e-05 ± 1.3e-05 s⁻¹.

As for A15U A39G A52G, the “self-cleavage kobs at 10000 uM GlcN6P” value is 0.000571 ± 0.00013 s⁻¹.

In the case of C16U G32U U46G, the “self-cleavage kobs at 10000 uM GlcN6P” value was determined as 0.000138 ± 2.5e-05 s⁻¹.

In the case of A36U U57G A64G C67U, the “self-cleavage kobs at 10000 uM GlcN6P” value was less than 1e-05 s⁻¹.

With A15C A42G C70G, the “self-cleavage kobs at 10000 uM GlcN6P” value was 4.12e-05 ± 1.7e-05 s⁻¹.

In the case of G29C G41A, the “self-cleavage kobs at 10000 uM GlcN6P” value was found to be 5.29e-05 ± 2.1e-05 s⁻¹.
